In patent US20250382355A1 (Merck Sharp & Dohme, published 2025):
Residue numbers refer to the chain shown, from its start.

Tests used:
[1] = target: T1, MERS spike protein on recombinant CHO K1 cells (MERS-CoV, UniProt K9N5Q8 18-1353); experiment: FACS on CHO K1 cells
T1 sequence: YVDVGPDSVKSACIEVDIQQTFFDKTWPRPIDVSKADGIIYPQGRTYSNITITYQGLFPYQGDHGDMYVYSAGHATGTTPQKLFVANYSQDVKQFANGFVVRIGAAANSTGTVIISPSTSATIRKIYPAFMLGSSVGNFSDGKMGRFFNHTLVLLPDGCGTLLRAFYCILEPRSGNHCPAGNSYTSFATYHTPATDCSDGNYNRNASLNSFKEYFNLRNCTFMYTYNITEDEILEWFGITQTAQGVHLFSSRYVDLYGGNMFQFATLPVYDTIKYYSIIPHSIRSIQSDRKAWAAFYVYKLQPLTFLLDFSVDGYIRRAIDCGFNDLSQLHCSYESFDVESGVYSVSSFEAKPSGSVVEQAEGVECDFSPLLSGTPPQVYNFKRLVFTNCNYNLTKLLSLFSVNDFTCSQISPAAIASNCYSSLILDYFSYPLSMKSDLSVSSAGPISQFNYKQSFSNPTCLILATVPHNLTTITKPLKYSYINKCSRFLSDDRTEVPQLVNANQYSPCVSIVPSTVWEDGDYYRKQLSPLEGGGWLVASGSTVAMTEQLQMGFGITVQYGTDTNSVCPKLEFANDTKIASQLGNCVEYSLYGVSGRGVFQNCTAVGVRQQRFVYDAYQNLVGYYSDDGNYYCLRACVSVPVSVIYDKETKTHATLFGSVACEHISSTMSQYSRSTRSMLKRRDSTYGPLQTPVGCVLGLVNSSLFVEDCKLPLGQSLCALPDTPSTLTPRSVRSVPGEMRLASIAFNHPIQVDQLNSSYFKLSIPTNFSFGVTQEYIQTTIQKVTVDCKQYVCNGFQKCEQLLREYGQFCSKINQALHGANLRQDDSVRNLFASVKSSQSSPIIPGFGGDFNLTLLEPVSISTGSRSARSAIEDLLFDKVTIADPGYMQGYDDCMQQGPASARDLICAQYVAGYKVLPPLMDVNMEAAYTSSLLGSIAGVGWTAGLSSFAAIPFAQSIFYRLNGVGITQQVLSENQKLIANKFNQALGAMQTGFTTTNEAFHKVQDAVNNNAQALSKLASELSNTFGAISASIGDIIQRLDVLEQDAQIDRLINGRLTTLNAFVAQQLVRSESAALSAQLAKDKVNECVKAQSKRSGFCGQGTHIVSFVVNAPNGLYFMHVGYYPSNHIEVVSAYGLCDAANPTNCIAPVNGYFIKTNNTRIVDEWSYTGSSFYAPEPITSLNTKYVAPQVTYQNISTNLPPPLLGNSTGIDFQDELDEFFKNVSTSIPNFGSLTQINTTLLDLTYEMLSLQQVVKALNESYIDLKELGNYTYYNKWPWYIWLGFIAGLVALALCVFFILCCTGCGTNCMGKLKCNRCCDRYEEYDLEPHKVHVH

[2] = target: T2, SARS-CoV-2 spike protein on recombinant CHO K1 cells (SARS-CoV-2, UniProt P0DTC2 14-1273); experiment: FACS on CHO K1 cells
T2 construct: whole, on cells

[3] = target: SARS-CoV spike protein on recombinant CHO K1 cells (SARS-CoV, UniProt P59594 14-1255); experiment: FACS on CHO K1 cells
[4] = target: SARS-CoV spike on rVSV-deltaG-Luc pseudovirus (SARS-CoV, UniProt P59594 14-1236); experiment: cell-based or functional assay
[5] = target: spike protein of authentic SARS-CoV/Urbani virus (SARS-CoV, UniProt P59594 14-1255); experiment: cell-based or functional assay
[6] = target: spike protein of authentic SARS-CoV-2 virus (SARS-CoV-2, UniProt P0DTC2 14-1273); experiment: cell-based or functional assay

B1: 1A11 VHH-Fc (Fc fusion)
chain: QVQLVESGGGLVQAGGSLRLSCEVSGSIYSINSMGWYRQAPGKQRELVAGIVSDGRINYADSVKGRFTISRAKNTVYLQMNSLKPEDTAVYYCAADRAFVYAGDYDYLGQGTQVTVSS
With B1 the binding result [1] was “no binding”, the EC50 [2] was 0.13 nM and the EC50 [3] was 0.06 nM. For the same binder, the “pseudovirus neutralization IC50” value [4] was 0.18 nM.

B2: 16H7 VHH-Fc (Fc fusion)
chain: QVQLVESGGGLVQAGGSLRLSCAASGRAFSKDTMGWFRQAPGKEREFVAVISASGDSTYYADFVKGRFTISRDNAKNTEYLQMNSLKPEDTAVYHCAADGARAYYSINAHRYSWAYNYWGQGTQVTVSS
For B2, the binding result [1] was “no binding” and the EC50 [2] was 0.31 nM.

B3: 15H7 VHH-Fc (Fc fusion)
chain: QVQLVESGGRLVQAGGSLRLSCAAPGRTFRNLTLGWFRQAPGKEREFVASTSWPDDEMTYYTDSVKGRFTISRDNAKNTVYLQMNSLKPEDTAVYYCAAASWSGRSTLSYDYDYWGQGTQVTVST
With B3 the binding result [1] was “no binding”, the EC50 [2] was 0.28 nM and the EC50 [3] was 0.14 nM. The “pseudovirus neutralization IC50” value [4] was 1.71 nM.

B4: 13C8 VHH-Fc (Fc fusion)
chain: QVQLVESGGGLVQAGGSLRLSCAASGRTVNKYMTGWFRQTPGKEREFVASIDWSSTTTHYANSVKGRFTISRDKVKNTVYLQMNGLKPEDTAVYYCAAHQDSSYGYTILPIDYDSWGQGTQVTVSS
B4 was tested, and the binding result [1] was “no binding”, the EC50 [2] was 0.22 nM and the EC50 [3] was 0.11 nM. For the same binder, the “pseudovirus neutralization IC50” value [4] was 4.98 nM.

B5: 5A6 VHH-Fc (Fc fusion)
chain: QVQLVESGGGLAQAGGSLRLSCATSGLTFSMSAMGWFRQAPGNEREFVGVINWNGGSSRYADSVRGRFTISRDNAKNTVYLQMNSLKPEDTGVYYCAADALNIGTGEVNPRLYDYWGQGTQVMVSS
For B5, the binding result [1] was “no binding”, the EC50 [2] was 0.43 nM and the EC50 [3] was 0.21 nM. The “pseudovirus neutralization IC50” value [4] was 6.3 nM.

B6: 9B2 VHH-Fc (Fc fusion)
chain: QVQLVESGGGLVQPGGSLRLSCAASGFTLDNYAIGWFRQAPGKEREGVSCISSSDGDTQYADSVKGRFTISRDNAKNTVYLQMNSLKPEDTAVYYCAVEKVYARSWFFHLCSELDFGSWGQGTQVTVSS
With B6 the binding result [1] was “no binding”, the EC50 [2] was 0.21 nM and the EC50 [3] was 0.13 nM. For the same binder, the “pseudovirus neutralization IC50” value [4] was 0.19 nM.

B7: S3_44 VHH-Fc (Fc fusion)
chain: QVQLVESGGGLVQPGGSLRLSCARSENNFSINAMAWYRQAPGKQRELVAAITTAGTTNYADSVKGRFTISRDNAKTTIYLQMNSLKPEDTAVYYCNLWAGTRDDLNEYWGQGTQVTVSS
Binder B7 has an EC50 [1] of 0.11 nM and an EC50 [2] of 0.08 nM.

B8: S3_29 VHH-Fc (Fc fusion)
chain: B7 chain with A54S
For B8, the EC50 [1] was 0.05 nM and the EC50 [2] was 0.03 nM.

B9: 10B8 VHH (VHH)
VHH: QVQLVESGGGLVQPGGSLRLSCAASGITLDYYAIAWFRQAPGKEREGVSCFCSSDGDIRYADSVKGRFTISRDNAKNTVYLQMNSLKPEDTAVYYCATERVYSSTWFFHRYSELDFGSWGRGTQVTVSS
With B9 the “authentic virus neutralization IC50” value [5] was 150 pM and the “authentic virus neutralization IC50” value [6] was 2.9 nM.

B10: 3D4 VHH-Fc (Fc fusion)
chain: QVQLVESGGGLVQPGGSLRLSCAASGFTLDLNSIGWFRQAPGKEREGVSCISPSGSRMHYADSVKGRFTISRDNAKNTVYLQMNSLKPEDTAVYYCATGSPSYHYCSMYGLEYDSWGQGTQVTVPS
In the case of B10, the binding result [1] is reported as “no binding”, the EC50 [2] is reported as 0.15 nM and the “pseudovirus neutralization IC50” value [4] is reported as 0.4 nM.

B11: 19C10 VHH-Fc (Fc fusion)
chain: B10 chain with G55A, R57S, M58T, S100T, S115D, P125S
For B11, the binding result [1] was “no binding”, the EC50 [2] was 0.17 nM and the “pseudovirus neutralization IC50” value [4] was 0.45 nM.

B12: 11F5 VHH-Fc (Fc fusion)
chain: QVQLVESGGGAVQAGDSLRLSCTASGRTFSTYAVGWFRQAPGKERELLAAITGSGRNPYYPDSLKGRFTISREYAKLPVYLQMNSLKPEDTAVYYCAARRGAIATMPLDYDHWGQGTQVTVSS
In the case of B12, the binding result [1] is reported as “no binding” and the EC50 [2] is reported as 0.04 nM.

B13: 19E10 VHH-Fc (Fc fusion)
chain: QVQLVESGGGLVQPGGSLRLSCVASGSTISINSMGWYRQAPGKAREMVATITNDGPIKYADPVKGRFTISRDNPKNTVYLQMNSLKPEDTAVYYCVADRAYWLAGEWEYWGQGTQVTVSS
For B13, the binding result [1] was “no binding”, the EC50 [2] was 0.14 nM and the EC50 [3] was 0.08 nM. The “pseudovirus neutralization IC50” value [4] was 0.12 nM.

B14: 8E9 VHH-Fc (Fc fusion)
chain: QVQLVESGGGLVEAGGSLRLSCVASGSSSSINAMGWYRQAPGKQRELVASISHDGETKYANSVKGRFTISRGNAKNTIYLQMNSLKPEDTAVYYCVGDVAWVVVAGEYDYWGQGTQVTVSS
With B14 the binding result [1] was “no binding”, the EC50 [2] was 0.31 nM and the EC50 [3] was 0.17 nM. For the same binder, the “pseudovirus neutralization IC50” value [4] was 2.94 nM.

B15: 7A9 VHH-Fc (Fc fusion)
chain: QVQLVESGGGLVQAGGSLRLSCSASGGTASRSAMGWFRQAPGKEREFVAGISRRNSGSTYVADSYEDSVKGRFTISRDNAKNTIYLQMNSLKPEDTAVYYCAAEPTLGWYVPRRSVEYEYWGQGTQVTVSS
In the case of B15, the binding result [1] is reported as “no binding”, the EC50 [2] is reported as 0.08 nM and the EC50 [3] is reported as 0.05 nM.

B16: 20D11 VHH-Fc (Fc fusion)
chain: QVQLVESGGGLVQAGGSLRLSCAASGRTSSIYSVGWFRQAPGKERELVAGITWSGGTTYYSDSVKGRFTISRDNAKNTVNLQMNNLKPEDTAIYYCAVDRYSMTMSARDYDYWGQGTQVTVSS
In the case of B16, the binding result [1] is reported as “no binding” and the EC50 [2] is reported as 0.08 nM.

B17: 14F3 VHH-Fc (Fc fusion)
chain: B16 chain with S33G, G50L, R72K, N80F, R100T, D111E
With B17 the binding result [1] was “no binding” and the EC50 [2] was 0.06 nM.

B18: 19B8 VHH-Fc (Fc fusion)
chain: QVQLVESGGGLVQAGGSLRLSCAASGRTFTNYAMGWFRQAPGKEREFVAAISWSGGGTNYADSVKGRFTISRDNAKNTVYLQMNSPKPEDTAVYYCATTLGYYGSSSRLYEYWGQGTQVTVSS
In the case of B18, the binding result [1] is reported as “no binding”, the EC50 [2] is reported as 0.04 nM and the “pseudovirus neutralization IC50” value [4] is reported as 42 nM.

B19: 15H1 VHH-Fc (Fc fusion)
chain: QVQLVESGGGLAQAGGSLRLSCASSGLIFSGSAMGWFRQAPGKEREFVGVISWNGRTTYADSVKGRFTISRDDAVNMVWLQMNNLKPEDTAVYYCAADHLNYGSGDVNPRTYDYWGQGTQVTVSS
In the case of B19, the binding result [1] is reported as “no binding”, the EC50 [2] is reported as 0.25 nM and the EC50 [3] is reported as 0.14 nM. For the same binder, the “pseudovirus neutralization IC50” value [4] was 12.3 nM.

B20: 5D7 VHH-Fc (Fc fusion)
chain: QVQLVESGGGLVQAGGSLRLSCAASGRTGSRYIMGWFRQAPGKEREFVAAINWRGDSTYYADSVKGRFTIARDNAKNTAYLQMNSLKPEDTAVYYCVADRGESYYYTRSTEYTYWGQGTQVTVSS
B20 was tested, and the binding result [1] was “no binding”, the EC50 [2] was 0.12 nM and the EC50 [3] was 0.09 nM. The “pseudovirus neutralization IC50” value [4] was 220 nM.

B21: 11F8 VHH-Fc (Fc fusion)
chain: QVQLVESGGGLVQAGGSLRLSCAASGRTVGYYAVGWFRQAPGKERDFVAAISWSGRNTNYADSVTGRFTIFRDNAKNTVDLQMNSLKPEDTAVYYCAADYWNYGSGSEVPNNYDTWGQGTQVTVSS
For B21, the binding result [1] was “no binding”, the EC50 [2] was 0.08 nM and the EC50 [3] was 0.09 nM. For the same binder, the “pseudovirus neutralization IC50” value [4] was 207 nM.
